Data on one molecule can be found in article PMC7934869 (2021).

In experiment [1] the target is T1, recombinant Plasmodium falciparum circumsporozoite protein (rPfCSP) (Plasmodium falciparum 3D7, UniProt Q7K740 19-374). The experiment in a line: ITC; second site (KD2). In general terms: ITC needs no label: the signal is the heat of the interaction.
For experiment [2], the target named is T1, recombinant Plasmodium falciparum …. The experiment in a line: ITC; first site (KD1).

T1 sequence (Q7K740 19-374): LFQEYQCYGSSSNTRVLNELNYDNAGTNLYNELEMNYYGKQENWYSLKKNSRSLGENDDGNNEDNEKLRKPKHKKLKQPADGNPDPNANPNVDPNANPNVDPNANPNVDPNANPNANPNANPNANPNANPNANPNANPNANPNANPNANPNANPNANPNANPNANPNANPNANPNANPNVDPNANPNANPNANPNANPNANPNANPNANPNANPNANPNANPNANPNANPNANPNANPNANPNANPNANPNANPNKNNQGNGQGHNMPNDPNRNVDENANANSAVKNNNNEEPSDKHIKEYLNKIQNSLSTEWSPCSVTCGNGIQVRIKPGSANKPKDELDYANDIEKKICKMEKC

B1: CIS43 human monoclonal antibody (antibody, V domains shown)
VH: QVQLVQSGAEVKKPGASVKVSCKASGYTFTSYAIHWVRQAPGQRLEWMGWIKAGNGNTRYSQKFQDRVTITRDTSTTTAYMELSSLRSEDTAVYYCALLTVLTPDDAFDIWGQGTMVTVSS
VL: not shown
For the molecule B1, the values for the Kd in experiment [1] and in experiment [2] were 42 nM and 7.9 nM, respectively.

What is called Kd is the constant that tells how readily two partners part at equilibrium.
